Source: patent US20150299281A1 (ZEALAND PHARMA A S, published 2015)
Numbered stars: 1 amine (or outer) side, 2 acyl side, 3 side chain; on linkers, the order of the positions; unused ones are H or OH. Square brackets hold non-standard residues; d marks the D form. Side chains are listed from the residue outwards. * marks the point of attachment. γGlu = O=C(O)[C@H](CCC(=O)[*:2])N[*:1]; Palmitoyl = CCCCCCCCCCCCCCCC(=O)*; pGlu = O=C1CC[C@@H](C(=O)O)N1; Aib = CC(C)(N)C(=O)O

T1: human GIP receptor (human, UniProt P48546 22-466)
T1 sequence (looked up): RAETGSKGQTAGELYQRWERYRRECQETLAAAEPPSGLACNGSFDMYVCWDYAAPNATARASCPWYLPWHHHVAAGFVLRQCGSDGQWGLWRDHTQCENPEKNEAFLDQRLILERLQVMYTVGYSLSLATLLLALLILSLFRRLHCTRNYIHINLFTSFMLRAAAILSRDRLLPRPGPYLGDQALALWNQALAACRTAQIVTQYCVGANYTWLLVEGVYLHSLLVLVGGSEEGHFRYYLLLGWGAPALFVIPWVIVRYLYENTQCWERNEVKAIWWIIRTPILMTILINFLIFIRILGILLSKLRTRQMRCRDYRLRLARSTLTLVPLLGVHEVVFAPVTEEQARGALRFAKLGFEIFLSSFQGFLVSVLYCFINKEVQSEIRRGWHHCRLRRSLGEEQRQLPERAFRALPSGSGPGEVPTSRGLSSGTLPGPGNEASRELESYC


Assays:
human GIP receptor = target: T1, human GIP receptor; assay: cell-based or functional assay
human GLP-1 receptor = human GLP-1 receptor (human, UniProt P43220 24-463); assay: cell-based or functional assay

| Binder | EC50, cAMP induction in HEK293 cells expressing human GIP R (human GIP receptor) [nM] | EC50, cAMP induction in HEK293 cells expressing human GLP-1 R (human GLP-1 receptor) [nM] |
| --- | --- | --- |
| H-Y[Aib]EGTFTSDYSIYLDEK([γGlu-Palmitoyl])AAKDFVEWLLSA-NH2 (SMILES CCCCCCCCCCCCCCCC(=O)N[C@@H](CCC(=O)NCCCC[C@H](NC(=O)[C@H](CCC(=O)O)NC(=O)[C@H](CC(=O)O)NC(=O)[C@H](CC(C)C)NC(=O)[C@H](Cc1ccc(O)cc1)NC(=O)[C@@H](NC(=O)[C@H](CO)NC(=O)[C@H](Cc1ccc(O)cc1)NC(=O)[C@H](CC(=O)O)NC(=O)[C@H](CO)NC(=O)[C@@H](NC(=O)[C@H](Cc1ccccc1)NC(=O)[C@@H](NC(=O)CNC(=O)[C@H](CCC(=O)O)NC(=O)C(C)(C)NC(=O)[C@@H](N)Cc1ccc(O)cc1)[C@@H](C)O)[C@@H](C)O)[C@@H](C)CC)C(=O)N[C@@H](C)C(=O)N[C@@H](C)C(=O)N[C@@H](CCCCN)C(=O)N[C@@H](CC(=O)O)C(=O)N[C@@H](Cc1ccccc1)C(=O)N[C@H](C(=O)N[C@@H](CCC(=O)O)C(=O)N[C@@H](Cc1c[nH]c2ccccc12)C(=O)N[C@@H](CC(C)C)C(=O)N[C@@H](CC(C)C)C(=O)N[C@@H](CO)C(=O)N[C@@H](C)C(N)=O)C(C)C)C(=O)O) [Compound 52] | 0.087 | 0.18 |
| YAEGTFTSDYSIALDKKAQRAFVNWLVAAKPSSGAPPPS (Aib at 2 and 29; K(hexadecanoyl-isoGlu) at 17; C-terminal amide) [Compound 36] |  | 0.015 |
| H-Y[Aib]EGTFTSDYSIYLDSKAAHDFVEWLLSAGPSSGAPPPS-NH2 (SMILES CC[C@H](C)[C@H](NC(=O)[C@H](CO)NC(=O)[C@H](Cc1ccc(O)cc1)NC(=O)[C@H](CC(=O)O)NC(=O)[C@H](CO)NC(=O)[C@@H](NC(=O)[C@H](Cc1ccccc1)NC(=O)[C@@H](NC(=O)CNC(=O)[C@H](CCC(=O)O)NC(=O)C(C)(C)NC(=O)[C@@H](N)Cc1ccc(O)cc1)[C@@H](C)O)[C@@H](C)O)C(=O)N[C@@H](Cc1ccc(O)cc1)C(=O)N[C@@H](CC(C)C)C(=O)N[C@@H](CC(=O)O)C(=O)N[C@@H](CO)C(=O)N[C@@H](CCCCN)C(=O)N[C@@H](C)C(=O)N[C@@H](C)C(=O)N[C@@H](Cc1c[nH]cn1)C(=O)N[C@@H](CC(=O)O)C(=O)N[C@@H](Cc1ccccc1)C(=O)N[C@H](C(=O)N[C@@H](CCC(=O)O)C(=O)N[C@@H](Cc1c[nH]c2ccccc12)C(=O)N[C@@H](CC(C)C)C(=O)N[C@@H](CC(C)C)C(=O)N[C@@H](CO)C(=O)N[C@@H](C)C(=O)NCC(=O)N1CCC[C@H]1C(=O)N[C@@H](CO)C(=O)N[C@@H](CO)C(=O)NCC(=O)N[C@@H](C)C(=O)N1CCC[C@H]1C(=O)N1CCC[C@H]1C(=O)N1CCC[C@H]1C(=O)N[C@@H](CO)C(N)=O)C(C)C) [Compound 55] | 0.0071 | 0.0087 |
| H-Y[Aib]EGTFTSDYSIYLDKKAQRAFVNWLLA[Aib]K-NH2 (SMILES CC[C@H](C)[C@H](NC(=O)[C@H](CO)NC(=O)[C@H](Cc1ccc(O)cc1)NC(=O)[C@H](CC(=O)O)NC(=O)[C@H](CO)NC(=O)[C@@H](NC(=O)[C@H](Cc1ccccc1)NC(=O)[C@@H](NC(=O)CNC(=O)[C@H](CCC(=O)O)NC(=O)C(C)(C)NC(=O)[C@@H](N)Cc1ccc(O)cc1)[C@@H](C)O)[C@@H](C)O)C(=O)N[C@@H](Cc1ccc(O)cc1)C(=O)N[C@@H](CC(C)C)C(=O)N[C@@H](CC(=O)O)C(=O)N[C@@H](CCCCN)C(=O)N[C@@H](CCCCN)C(=O)N[C@@H](C)C(=O)N[C@@H](CCC(N)=O)C(=O)N[C@@H](CCCNC(=N)N)C(=O)N[C@@H](C)C(=O)N[C@@H](Cc1ccccc1)C(=O)N[C@H](C(=O)N[C@@H](CC(N)=O)C(=O)N[C@@H](Cc1c[nH]c2ccccc12)C(=O)N[C@@H](CC(C)C)C(=O)N[C@@H](CC(C)C)C(=O)N[C@@H](C)C(=O)NC(C)(C)C(=O)N[C@@H](CCCCN)C(N)=O)C(C)C) [Compound 5] | 0.031 | 0.023 |
| H-Y[Aib]EGTFTSDYSIYLDSK([γGlu-Palmitoyl])AAHDFVEWLLSAGPSSGAPPPS-NH2 (SMILES CCCCCCCCCCCCCCCC(=O)N[C@@H](CCC(=O)NCCCC[C@H](NC(=O)[C@H](CO)NC(=O)[C@H](CC(=O)O)NC(=O)[C@H](CC(C)C)NC(=O)[C@H](Cc1ccc(O)cc1)NC(=O)[C@@H](NC(=O)[C@H](CO)NC(=O)[C@H](Cc1ccc(O)cc1)NC(=O)[C@H](CC(=O)O)NC(=O)[C@H](CO)NC(=O)[C@@H](NC(=O)[C@H](Cc1ccccc1)NC(=O)[C@@H](NC(=O)CNC(=O)[C@H](CCC(=O)O)NC(=O)C(C)(C)NC(=O)[C@@H](N)Cc1ccc(O)cc1)[C@@H](C)O)[C@@H](C)O)[C@@H](C)CC)C(=O)N[C@@H](C)C(=O)N[C@@H](C)C(=O)N[C@@H](Cc1c[nH]cn1)C(=O)N[C@@H](CC(=O)O)C(=O)N[C@@H](Cc1ccccc1)C(=O)N[C@H](C(=O)N[C@@H](CCC(=O)O)C(=O)N[C@@H](Cc1c[nH]c2ccccc12)C(=O)N[C@@H](CC(C)C)C(=O)N[C@@H](CC(C)C)C(=O)N[C@@H](CO)C(=O)N[C@@H](C)C(=O)NCC(=O)N1CCC[C@H]1C(=O)N[C@@H](CO)C(=O)N[C@@H](CO)C(=O)NCC(=O)N[C@@H](C)C(=O)N1CCC[C@H]1C(=O)N1CCC[C@H]1C(=O)N1CCC[C@H]1C(=O)N[C@@H](CO)C(N)=O)C(C)C)C(=O)O) [Compound 53] | 0.062 | 0.092 |
| H-YGEGTFTSDYSIYLDKKAQRAFVNWLLA[Aib]K-NH2 (SMILES CC[C@H](C)[C@H](NC(=O)[C@H](CO)NC(=O)[C@H](Cc1ccc(O)cc1)NC(=O)[C@H](CC(=O)O)NC(=O)[C@H](CO)NC(=O)[C@@H](NC(=O)[C@H](Cc1ccccc1)NC(=O)[C@@H](NC(=O)CNC(=O)[C@H](CCC(=O)O)NC(=O)CNC(=O)[C@@H](N)Cc1ccc(O)cc1)[C@@H](C)O)[C@@H](C)O)C(=O)N[C@@H](Cc1ccc(O)cc1)C(=O)N[C@@H](CC(C)C)C(=O)N[C@@H](CC(=O)O)C(=O)N[C@@H](CCCCN)C(=O)N[C@@H](CCCCN)C(=O)N[C@@H](C)C(=O)N[C@@H](CCC(N)=O)C(=O)N[C@@H](CCCNC(=N)N)C(=O)N[C@@H](C)C(=O)N[C@@H](Cc1ccccc1)C(=O)N[C@H](C(=O)N[C@@H](CC(N)=O)C(=O)N[C@@H](Cc1c[nH]c2ccccc12)C(=O)N[C@@H](CC(C)C)C(=O)N[C@@H](CC(C)C)C(=O)N[C@@H](C)C(=O)NC(C)(C)C(=O)N[C@@H](CCCCN)C(N)=O)C(C)C) [Compound 7] | 0.21 | 0.024 |
| [pGlu]YAEGTFTSDYSIYLDKKAQRAFVNWLLA[Aib]K-NH2 (SMILES CC[C@H](C)[C@H](NC(=O)[C@H](CO)NC(=O)[C@H](Cc1ccc(O)cc1)NC(=O)[C@H](CC(=O)O)NC(=O)[C@H](CO)NC(=O)[C@@H](NC(=O)[C@H](Cc1ccccc1)NC(=O)[C@@H](NC(=O)CNC(=O)[C@H](CCC(=O)O)NC(=O)[C@H](C)NC(=O)[C@H](Cc1ccc(O)cc1)NC(=O)[C@@H]1CCC(=O)N1)[C@@H](C)O)[C@@H](C)O)C(=O)N[C@@H](Cc1ccc(O)cc1)C(=O)N[C@@H](CC(C)C)C(=O)N[C@@H](CC(=O)O)C(=O)N[C@@H](CCCCN)C(=O)N[C@@H](CCCCN)C(=O)N[C@@H](C)C(=O)N[C@@H](CCC(N)=O)C(=O)N[C@@H](CCCNC(=N)N)C(=O)N[C@@H](C)C(=O)N[C@@H](Cc1ccccc1)C(=O)N[C@H](C(=O)N[C@@H](CC(N)=O)C(=O)N[C@@H](Cc1c[nH]c2ccccc12)C(=O)N[C@@H](CC(C)C)C(=O)N[C@@H](CC(C)C)C(=O)N[C@@H](C)C(=O)NC(C)(C)C(=O)N[C@@H](CCCCN)C(N)=O)C(C)C) [Compound 6] | 0.27 | 0.97 |
| H-Y[Aib]EGTFTSDYSIYLEKK([γGlu-Palmitoyl])AAKEFVEWLLSAGPSSGAPPPS-NH2 (SMILES CCCCCCCCCCCCCCCC(=O)N[C@@H](CCC(=O)NCCCC[C@H](NC(=O)[C@H](CCCCN)NC(=O)[C@H](CCC(=O)O)NC(=O)[C@H](CC(C)C)NC(=O)[C@H](Cc1ccc(O)cc1)NC(=O)[C@@H](NC(=O)[C@H](CO)NC(=O)[C@H](Cc1ccc(O)cc1)NC(=O)[C@H](CC(=O)O)NC(=O)[C@H](CO)NC(=O)[C@@H](NC(=O)[C@H](Cc1ccccc1)NC(=O)[C@@H](NC(=O)CNC(=O)[C@H](CCC(=O)O)NC(=O)C(C)(C)NC(=O)[C@@H](N)Cc1ccc(O)cc1)[C@@H](C)O)[C@@H](C)O)[C@@H](C)CC)C(=O)N[C@@H](C)C(=O)N[C@@H](C)C(=O)N[C@@H](CCCCN)C(=O)N[C@@H](CCC(=O)O)C(=O)N[C@@H](Cc1ccccc1)C(=O)N[C@H](C(=O)N[C@@H](CCC(=O)O)C(=O)N[C@@H](Cc1c[nH]c2ccccc12)C(=O)N[C@@H](CC(C)C)C(=O)N[C@@H](CC(C)C)C(=O)N[C@@H](CO)C(=O)N[C@@H](C)C(=O)NCC(=O)N1CCC[C@H]1C(=O)N[C@@H](CO)C(=O)N[C@@H](CO)C(=O)NCC(=O)N[C@@H](C)C(=O)N1CCC[C@H]1C(=O)N1CCC[C@H]1C(=O)N1CCC[C@H]1C(=O)N[C@@H](CO)C(N)=O)C(C)C)C(=O)O) [Compound 54] | 0.037 | 0.033 |
